Measurements reported in patent publication US20110020218A1 (PIERRE FABRE MEDICAMENT, published 2011).
Changes are numbered by the printed parent chain. In names and notes the source's numbering stands.

T1: CXCR2:YFP fusion protein (UniProt P25025 1-360)
T1 construct: whole, on cells; Transiently expressed in HEK293 cells for BRET; not shown: Yellow fluorescent protein (EYFP)
T1 sequence (looked up): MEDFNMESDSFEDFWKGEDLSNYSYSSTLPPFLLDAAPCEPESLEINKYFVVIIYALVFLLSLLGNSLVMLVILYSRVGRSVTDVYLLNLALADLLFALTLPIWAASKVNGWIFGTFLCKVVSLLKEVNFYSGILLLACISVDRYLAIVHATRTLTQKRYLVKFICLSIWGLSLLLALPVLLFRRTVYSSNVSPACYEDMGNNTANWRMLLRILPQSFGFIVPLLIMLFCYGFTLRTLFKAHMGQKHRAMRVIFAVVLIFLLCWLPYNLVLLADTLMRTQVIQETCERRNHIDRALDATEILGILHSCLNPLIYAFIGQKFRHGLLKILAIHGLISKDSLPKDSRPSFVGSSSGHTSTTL

B1: humanized antibody Hz515H7 VH1 VL1 (antibody, human IgG1, kappa, V domains shown)
VH: EVQLVESGGGLVQPGRSLRLSCTASGFTFTDNYMSWVRQAPGKGLEWVGFIRNKANGYTTEYAASVKGRFTISRDDSKSIAYLQMNSLKTEDTAVYYCARDVGSNYFDYWGQGTLVTVSS
VL: DIVMTQSPDSLAVSLGERATINCKSSQSLFNSRTRKNYLAWYQQKPGQPPKLLIYWASTRESGVPDRFSGSGSGTDFTLTISSLQAEDVAVYYCMQSFNLRTFGQGTKVEIKR
notes: Human IgG1/kappa format; no back mutations; also called 515H7 VH variant 1 VL variant 1
B2: hz515H7 VH1 VL2 (antibody, human IgG1, kappa)
heavy: not shown
light: DIVMTQSPSSLAVSLGERATMSCKSSQSLFNSRTRKNYLAWYQQKPGQSPKLLIYWASARDSGVPARFTGSGSETYFTLTISRVQAEDLAVYYCMQSFNLRTFGQGTKVEIKRTVAAPSVFIFPPSDEQLKSGTASVVCLLNNFYPREAKVQWKVDNALQSGNSQESVTEQDSKDSTYSLSSTLTLSKADYEKHKVYACEVTHQGLSSPVTKSFNRGEC
notes: human IgG1/kappa format; also called VH variant 1 combined with variant 2 of VL
B3: hz515H7 VH1 combined with the chimeric VL (cVL) (antibody, human IgG1, kappa)
heavy: not shown
VL: B2 light with T5S, L15A, R18K, A19V, Q105G, V109L
notes: Humanized VH variant with the chimeric (murine VL, human Ckappa) light chain of c515H7; IgG1/kappa; also called VH1 cVL
B4: anti-CXCR4 chimeric Mab c414H5 (antibody, human IgG1, kappa, V domains shown)
VH: EVKLVESGGGLVQPGGSLRLSCTTSGFTFTDYYMSWVRQSPGKALEWLTFIRNKANGYTTEYSASVKGRFTISRDNSQSILYLQMNTLRAEDSATYYCARDIPGFAYWGQGTLVTVSA
VL: DIVMSQSPSSLAVSAGEKVTMSCKSSQSLYNSRTRKNYLAWYQQKPGQSPKLLIYWASTRESGVPDRFTGSGSGTDFTLTITSVQAEDLAVFYCKQSYNLRTFGGGTKLEIKR
notes: they may be whole chains; also called chimeric 414H5
B5: anti-CXCR4 chimeric Mab c515H7 (antibody, human IgG1, kappa, V domains shown)
VH: EVNLVESGGGLVQPGGSLRLSCATSGFTFTDNYMSWVRQPPGKALEWLGFIRNKANGYTTDYSASVRGRFTISRDNSQSILYLQMNALRAEDSATYYCARDVGSNYFDYWGQGTTLTVSS
VL: DIVMSQSPSSLAVSAGEKVTMSCKSSQSLFNSRTRKNYLAWYQQKPGQSPKLLIYWASARDSGVPARFTGSGSETYFTLTISRVQAEDLAVYYCMQSFNLRTFGGGTKLEIKR
notes: they may be whole chains; also called chimeric 515H7
B6: anti-CXCR4 Mab 414H5 (antibody, V domains shown)
VH: B4 VH
VL: DIVMSQSPSSLAVSAGEKVTMSCKSSQSLYNSRTRKNYLAWYQQKPGQSPKLLIYWASTRESGVPDRFTGSGSGTDFTLTITSVQAEDLAVFYCKQSYNLRTFGGGTKLEIK
B7: anti-CXCR4 Mab 515H7 (antibody, V domains shown)
VH: B5 VH
VL: DIVMSQSPSSLAVSAGEKVTMSCKSSQSLFNSRTRKNYLAWYQQKPGQSPKLLIYWASARDSGVPARFTGSGSETYFTLTISRVQAEDLAVYYCMQSFNLRTFGGGTKLEIK
B8: humanized antibody Hz515H7 VH1 D76N VL2 (antibody, human IgG1, kappa, V domains shown)
VH: B1 VH with D76N
VL: B5 VL with S5T, A15L, K18R, V19A, G105Q, L109V
B9: humanized antibody Hz515H7 VH1 D76N VL2.1 (antibody, human IgG1, kappa, V domains shown)
VH: B1 VH with D76N
VL: B1 VL with I21M, N22S, T59A, E61D, G74E, D76Y, S83R, L84V, V89L
B10: humanized antibody Hz515H7 VH1 D76N VL2.2 (antibody, human IgG1, kappa, V domains shown)
VH: B1 VH with D76N
VL: B1 VL with I21M, N22S, T59A, E61D, S69T, G74E, D76Y, S83R, L84V
B11: humanized antibody Hz515H7 VH1 D76N VL2.3 (antibody, human IgG1, kappa, V domains shown)
VH: B1 VH with D76N
VL: B1 VL with I21M, N22S, T59A, E61D, S69T, G74E, D76Y, V89L
B12: CXCR4/Rluc fusion protein (receptor, UniProt P61073 1-352, looked up)
chain: MEGISIYTSDNYTEEMGSGDYDSMKEPCFREENANFNKIFLPTIYSIIFLTGIVGNGLVILVMGYQKKLRSMTDKYRLHLSVADLLFVITLPFWAVDAVANWYFGNFLCKAVHVIYTVNLYSSVLILAFISLDRYLAIVHATNSQRPRKLLAEKVVYVGVWIPALLLTIPDFIFANVSEADDRYICDRFYPNDLWVVVFQFQHIMVGLILPGIVILSCYCIIISKLSHSKGHQKRKALKTTVILILAFFACWLPYYIGISIDSFILLEIIKQGCEFENTVHKWISITEALAFFHCCLNPILYAFLGAKFKTSAQHALTSVSRGSSLKILSKGKRGGHSSVSTESESSSFHSS
notes: whole, on cells; Transiently expressed in HEK293 cells for BRET; also called CXCR4 tagged with luciferase; not shown: Renilla reniformis luciferase (Rluc)

target: T2, human CXCR4 receptor (wild type) (human, UniProt P61073 1-352); assay: flow cytometry competition with biotinylated murine 515H7 on CXCR4 transfected NIH3T3 cells
T2 construct: whole, on cells; Expressed on transfected NIH3T3 / CHO-K1 cells (or their membranes) or endogenous on human cancer cell lines; also called hCXCR4; wild-type CXCR4 receptor

B1: binds.
B2: binds.
B3: binds.

target: T2, human CXCR4 receptor (wild type); assay: SPA competition, Mab 100 nM, labelled competitor [125I]SDF-1 (1 nM), CHO-K1/human CXCR4 membranes
Protocol: CHO-K1 cells, stably and constitutively expressing human CXCR4 receptor were obtained upon transfection of naïve CHO-K¹ cells (ATCC CCL-61) with a mammalian expression vector carrying the whole coding sequence of human CXCR4 receptor (RefSeq NM_{—}003467). Cells were propagated in complete culture medium [DMEM-Ham's F12 supplemented with 5% fetal calf serum (FCS) and 500 μg/ml of geneticin]. Radioligand binding experiments were conducted on cell membranes obtained upon mechanical scrapping of CHO/CXCR4 cells in lysis buffer [Hepes 20 mM, pH 7.4, NaCl 150 mM] followed by centrifugation (10000 g, 15 min). […] Upon centrifugation [1000 g for 10 min.] radioactive counts were measured in a scintillation counter (TopCount, Perkin Elmer).

Going from B4 to B5, the “% inhibition of [125I]SDF-1” value rises from 21% to 55%.

target: T2, human CXCR4 receptor (wild type); assay: cell-based or functional assay

Going from B6 to B4, the “IC50, [35S]GTPγS binding, Hela cells, SDF-1 10 nM” value falls from 0.5 nM to 0.3 nM (1.7-fold).

Compared with B7, B5 is 3-fold higher in “IC50, [35S]GTPγS binding, Hela cells, SDF-1 10 nM” value: 0.2 nM for the first, 0.6 nM for the second.

B6 and B4 are within 1.5-fold of each other in “IC50, [35S]GTPγS binding, NIH3T3/CXCR4 cells, SDF-1 10 nM” value: 1.6 nM for the first, 1.1 nM for the second.

B7 and B5 are within 1.5-fold of each other in “IC50, [35S]GTPγS binding, NIH3T3/CXCR4 cells, SDF-1 10 nM” value: 1.9 nM for the first, 1.5 nM for the second.

Compared with B6, B4 is higher in “inhibition of SDF-1-induced BRET increase (CXCR4 homo-dimers)” value: 63% for the first, 75% for the second.

Compared with B7, B5 is higher in “inhibition of SDF-1-induced BRET increase (CXCR4 homo-dimers)” value: 69% for the first, 96% for the second.

Compared with B6, B4 is higher in “inhibition of SDF-1-induced β-arrestin recruitment (BRET)” value (from here on “inhibition … (BRET)”): about 20% for the first, about 63% for the second.

Going from B7 to B8, the “inhibition … (BRET)” value falls from 95% to about 94%.

Going from B5 to B9, the “inhibition … (BRET)” value falls from 93% to about 81%.

Compared with B10, B11 is lower in “inhibition … (BRET)” value: about 82% for the first, about 71% for the second.

First: B4
Second: B7
The “decrease in SDF-1-induced U937 cells migration” value of the first is lower: about 50% for the first, over 80% for the second.

For B5, the “decrease in SDF-1-induced U937 cells migration” value was over 80%.

First: B7
Second: B8
The “% of inhibition of [35S]GTPγS binding stimulated by SDF-1 (100 nM)” value (“% of inhibition … (100 nM)” for short) of the first is lower: 71% for the first, 86% for the second.

First: B5
Second: B9
The “% of inhibition … (100 nM)” value of the first is higher: 71% for the first, 69% for the second.

Compared with B10, B11 is lower in “% of inhibition … (100 nM)” value: 66% for the first, 58% for the second.

B8 and B9 are within 1.5-fold of each other in “IC50, [35S]GTPγS binding, NIH3T3/CXCR4 cells” value: 3.86 nM for the first, 4.05 nM for the second.

Going from B10 to B11, the “IC50, [35S]GTPγS binding, NIH3T3/CXCR4 cells” value rises from 5.19 nM to 8.5 nM (1.6-fold).

Going from B8 to B9, the “percentage of inhibition of SDF-1-induced BRET increase (CXCR4 homo-dimers)” value falls from about 88% to about 65%.

First: B10
Second: B11
The “percentage of inhibition of SDF-1-induced BRET increase (CXCR4 homo-dimers)” value of the first is higher: about 33% for the first, about 21% for the second.

target: T1, CXCR2:YFP fusion protein; assay: BRET in transiently transfected HEK293 cells
Protocol: The day after, cells were distributed in poly-lysine pre-coated white 96 MW plates in complete culture medium [DMEM supplemented with 10% FBS]. Cells were first cultivated at 37° C. with CO₂ 5% in order to allow cell attachment to the plate. Cells were then starved with 200 μl DMEM/well overnight. Immediately prior to the BRET experiment, DMEM was removed and cells were quickly washed with PBS. […] After incubation for further 10 minutes at 37° C., light-emission acquisition at 485 nm and 530 nm was initiated using the Mithras LB940 multilabel reader (Berthold) (1 s/wavelength/well repeated 15 times at room temperature).
Calculation of BRET ratio was performed as previously described (Angers et al., 2000): [(emission_{530 nm})−(emission_{485 nm})×Cf]/(emission_{485 nm}), where Cf=(emission_{530 nm})/(emission_{485 nm}) for cells expressing the Rluc fusion protein alone under the same experimental conditions. […] For sake of readability, results are expressed in milliBRET units (mBU); mBU corresponds to the BRET ratio multiplied by 1000.

B12: binds.
